B1: Transcription factor 12 (Homo sapiens), Q99081 (parent)
chain: MNPQQQRMAAIGTDKELSDLLDFSAMFSPPVNSGKTRPTTLGSSQFSGSGIDERGGTTSWGTSGQPSPSYDSSRGFTDSPHYSDHLNDSRLGAHEGLSPTPFMNSNLMGKTSERGSFSLYSRDTGLPGCQSSLLRQDLGLGSPAQLSSSGKPGTAYYSFSATSSRRRPLHDSAALDPLQAKKVRKVPPGLPSSVYAPSPNSDDFNRESPSYPSPKPPTSMFASTFFMQDGTHNSSDLWSSSNGMSQPGFGGILGTSTSHMSQSSSYGNLHSHDRLSYPPHSVSPTDINTSLPPMSSFHRGSTSSSPYVAASHTPPINGSDSILGTRGNAAGSSQTGDALGKALASIYSPDHTSSSFPSNPSTPVGSPSPLTGTSQWPRPGGQAPSSPSYENSLHSLQSRMEDRLDRLDDAIHVLRNHAVGPSTSLPAGHSDIHSLLGPSHNAPIGSLNSNYGGSSLVASSRSASMVGTHREDSVSLNGNHSVLSSTVTTSSTDLNHKTQENYRGGLQSQSGTVVTTEIKTENKEKDENLHEPPSSDDMKSDDESSQKDIKVSSRGRTSSTNEDEDLNPEQKIEREKERRMANNARERLRVRDINEAFKELGRMCQLHLKSEKPQTKLLILHQAVAVILSLEQQVRERNLNPKAACLKRREEEKVSAVSAEPPTTLPGTHPGLSETTNPMGHM
partner: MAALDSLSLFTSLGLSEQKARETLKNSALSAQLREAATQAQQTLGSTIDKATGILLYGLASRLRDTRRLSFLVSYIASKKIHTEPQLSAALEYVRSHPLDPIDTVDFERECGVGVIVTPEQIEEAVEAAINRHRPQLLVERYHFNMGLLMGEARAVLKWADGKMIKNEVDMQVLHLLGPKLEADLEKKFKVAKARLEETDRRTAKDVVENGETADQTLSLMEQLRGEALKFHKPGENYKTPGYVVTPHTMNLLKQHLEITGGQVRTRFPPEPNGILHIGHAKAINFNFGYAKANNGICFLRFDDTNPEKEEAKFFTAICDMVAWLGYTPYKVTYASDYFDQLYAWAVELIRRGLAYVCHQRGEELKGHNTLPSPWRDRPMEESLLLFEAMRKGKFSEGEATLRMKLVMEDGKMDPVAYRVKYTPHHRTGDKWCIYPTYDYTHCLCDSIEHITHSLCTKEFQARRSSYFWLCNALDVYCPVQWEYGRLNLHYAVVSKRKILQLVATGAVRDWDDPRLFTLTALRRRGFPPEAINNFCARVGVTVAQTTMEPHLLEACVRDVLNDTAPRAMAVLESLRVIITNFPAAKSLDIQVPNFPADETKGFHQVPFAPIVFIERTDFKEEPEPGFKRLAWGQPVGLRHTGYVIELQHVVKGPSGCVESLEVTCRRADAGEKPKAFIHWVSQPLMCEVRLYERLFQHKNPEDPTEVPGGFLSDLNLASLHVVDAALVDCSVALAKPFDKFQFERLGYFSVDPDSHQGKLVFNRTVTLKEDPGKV
B2: Tuftelin-interacting protein 11 (Homo sapiens), Q9UBB9 (parent)
chain: MSLSHLYRDGEGRIDDDDDERENFEITDWDLQNEFNPNRQRHWQTKEEATYGVWAERDSDDERPSFGGKRARDYSAPVNFISAGLKKGAAEEAELEDSDDEEKPVKQDDFPKDFGPRKLKTGGNFKPSQKGFAGGTKSFMDFGSWERHTKGIGQKLLQKMGYVPGRGLGKNAQGIINPIEAKQRKGKGAVGAYGSERTTQSMQDFPVVDSEEEAEEEFQKELSQWRKDPSGSKKKPKYSYKTVEELKAKGRISKKLTAPQKELSQVKVIDMTGREQKVYYSYSQISHKHNVPDDGLPLQSQQLPQSGKEAKAPGFALPELEHNLQLLIDLTEQEIIQNDRQLQYERDMVVNLFHELEKMTEVLDHEERVISNLSKVLEMVEECERRMQPDCSNPLTLDECARIFETLQDKYYEEYRMSDRVDLAVAIVYPLMKEYFKEWDPLKDCTYGTEIISKWKSLLENDQLLSHGGQDLSADAFHRLIWEVWMPFVRNIVTQWQPRNCDPMVDFLDSWVHIIPVWILDNILDQLIFPKLQKEVENWNPLTDTVPIHSWIHPWLPLMQARLEPLYSPIRSKLSSALQKWHPSDSSAKLILQPWKDVFTPGSWEAFMVKNIVPKLGMCLGELVINPHQQHMDAFYWVIDWEGMISVSSLVGLLEKHFFPKWLQVLCSWLSNSPNYEEITKWYLGWKSMFSDQVLAHPSVKDKFNEALDIMNRAVSSNVGAYMQPGARENIAYLTHTERRKDFQYEAMQERREAENMAQRGIGVAASSVPMNFKDLIETKAEEHNIVFMPVIGKRHEGKQLYTFGRIVIYIDRGVVFVQGEKTWVPTSLQSLIDMAK
partner: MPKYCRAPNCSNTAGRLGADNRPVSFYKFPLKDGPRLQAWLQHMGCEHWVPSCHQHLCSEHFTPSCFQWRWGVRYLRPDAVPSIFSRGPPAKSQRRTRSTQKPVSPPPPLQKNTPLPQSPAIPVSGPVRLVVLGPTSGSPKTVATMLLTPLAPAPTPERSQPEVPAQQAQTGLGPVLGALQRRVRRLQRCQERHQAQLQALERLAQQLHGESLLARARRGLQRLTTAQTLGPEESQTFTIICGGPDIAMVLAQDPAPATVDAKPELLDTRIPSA
B3: Zinc finger protein 165 (Homo sapiens), P49910 (parent)
chain: MATEPKKAAAQNSPEDEGLLIVKIEEEEFIHGQDTCLQRSELLKQELCRQLFRQFCYQDSPGPREALSRLRELCCQWLKPEIHTKEQILELLVLEQFLTILPGDLQAWVHEHYPESGEEAVTILEDLERGTDEAVLQVQAHEHGQEIFQKKVSPPGPALNVKLQPVETKAHFDSSEPQLLWDCDNESENSRSMPKLEIFEKIESQRIISGRISGYISEASGESQDICKSAGRVKRQWEKESGESQRLSSAQDEGFGKILTHKNTVRGEIISHDGCERRLNLNSNEFTHQKSCKHGTCDQSFKWNSDFINHQIIYAGEKNHQYGKSFKSPKLAKHAAVFSGDKTHQCNECGKAFRHSSKLARHQRIHTGERCYECNECGKSFAESSDLTRHRRIHTGERPFGCKECGRAFNLNSHLIRHQRIHTREKPYECSECGKTFRVSSHLIRHFRIHTGEKPYECSECGRAFSQSSNLSQHQRIHMRENLLM
partner: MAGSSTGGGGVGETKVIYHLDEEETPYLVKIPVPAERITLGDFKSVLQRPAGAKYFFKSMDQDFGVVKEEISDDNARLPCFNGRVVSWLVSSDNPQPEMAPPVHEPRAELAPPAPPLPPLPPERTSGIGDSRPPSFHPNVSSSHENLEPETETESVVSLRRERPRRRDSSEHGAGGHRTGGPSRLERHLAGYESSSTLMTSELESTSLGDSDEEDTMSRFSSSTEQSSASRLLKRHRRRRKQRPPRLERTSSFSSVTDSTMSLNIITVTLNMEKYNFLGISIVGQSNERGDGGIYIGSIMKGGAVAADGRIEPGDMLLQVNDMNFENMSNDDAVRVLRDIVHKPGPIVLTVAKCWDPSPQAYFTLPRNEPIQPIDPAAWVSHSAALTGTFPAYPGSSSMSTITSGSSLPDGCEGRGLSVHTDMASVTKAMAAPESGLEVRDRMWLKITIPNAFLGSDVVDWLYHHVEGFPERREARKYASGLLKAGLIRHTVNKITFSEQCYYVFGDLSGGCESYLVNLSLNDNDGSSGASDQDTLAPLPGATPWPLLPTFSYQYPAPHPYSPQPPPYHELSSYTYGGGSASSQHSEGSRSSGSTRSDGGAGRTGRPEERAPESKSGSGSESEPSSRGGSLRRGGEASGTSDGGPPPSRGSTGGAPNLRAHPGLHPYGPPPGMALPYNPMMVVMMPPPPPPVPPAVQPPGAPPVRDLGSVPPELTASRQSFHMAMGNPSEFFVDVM

This is an account of results in IntAct's records for PubMed 31515488.

One assay covers variants of B1. As to conditions: with syq_human QARS1, P47897.
I11M: the “effect of a mutation on the interaction” value is recorded as “with no effect”.

A further assay covers variants of B2. As to conditions: with thap8_human THAP8, Q8NA92.
As to R8Q, the “effect of a mutation on the interaction” value was “with no effect”. As to S688L, the “effect of a mutation on the interaction” value is “with no effect”.

The variants in a further assay derive from B3. As to conditions: with dvl2_human DVL2, O14641.
With N347Y, the “effect of a mutation on the interaction” value was “with no effect”.

As to R69C, the “effect of a mutation on the interaction” value is on record as “with no effect”.
